Measurements from PMC5409194 (Journal of Visualized Experiments : JoVE, 2017).

Molecular target: the molecule itself
Assay: […]

B1: C-terminal fragment (residue 323-785) of vaccinia virus protein D5 (domain or fragment)
chain: GNKLFNIAQRILDTNSVLLTERGDYIVWINNSWKFNSEEPLITKLILSIRHQLPKEYSSELLCPRKRKTVEANIRDMLVDSVETDTYPDKLPFKNGVLDLVDGMFYSGDDAKKYTCTVSTGFKFDDTKFVEDSPEMEELMNIINDIQPLTDENKKNRELYEKTLSSCLCGATKGCLTFFFGETATGKSTTKRLLKSAIGDLFVETGQTILTDVLDKGPNPFIANMHLKRSVFCSELPDFACSGSKKIRSDNIKKLTEPCVIGRPCFSNKINNRNHATIIIDTNYKPVFDRIDNALMRRIAVVRFRTHFSQPSGREAAENNDAYDKVKLLDEGLDGKIQNNRYRFAFLYLLVKWYKKYHVPIMKLYPTPEEIPDFAFYLKIGTLLVSSSVKHIPLMTDLSKKGYILYDNVVTLPLTTFQQKISKYFNSRLFGHDIESFINRHKKFANVSDEYLQYIFIEDISSP
  stoichiometry N: 6
